From the supplement of paper PMC11246515
± gives the standard deviation of the averaged measurements.

Experiment: total protein half-life in vivo (active degradation + dilution); higher = more stable protein
[1] = E. coli NCM3722 delta-clpP delta-lon delta-hslV, growth: N-lim chemostat, doubling time 6 h
[2] = E. coli NCM3722 delta-clpP, growth: N-lim chemostat, doubling time 6 h
[3] = E. coli NCM3722 delta-hslV, growth: N-lim chemostat, doubling time 6 h
[4] = E. coli NCM3722 delta-lon, growth: N-lim chemostat, doubling time 6 h
[5] = E. coli NCM3722 delta-smpB, growth: N-lim chemostat, doubling time 6 h
[6] = wild type E. coli NCM3722, growth: C-lim chemostat, doubling time 3 h
[7] = wild type E. coli NCM3722, growth: C-lim chemostat, doubling time 6 h
[8] = wild type E. coli NCM3722, growth: C-lim chemostat, doubling time 12 h
[9] = wild type E. coli NCM3722, growth: N-lim chemostat, doubling time 6 h
[10] = wild type E. coli NCM3722, growth: N-lim chemostat, doubling time 12 h
[11] = wild type E. coli NCM3722, growth: P-lim chemostat, doubling time 6 h
[12] = wild type E. coli NCM3722, growth: P-lim chemostat, doubling time 12 h

MTPHVMKRDGCKVPFKSERIKEAILRAAKAAEVDDADYCATVAAVVSEQMQGRNQVDINEIQTAVENQLMSGPYKQLARAYIEYRHDRDIEREKRGRLNQEIRGLVEQTNASLLNENANKDSKVIPTQRDLLAGIVAKHYARQHLLPRDVVQAHERGDIHYHDLDYSPFFPMFNCMLIDLKGMLTQGFKMGNAEIEPPKSISTATAVTAQIIAQVASHIYGGTTINRIDEVLAPFVTASYNKHRKTAEEWNIPDAEGYANSRTIKECYDAFQSLEYEVNTLHTANGQTPFVTFGFGLGTSWESRLIQESILRNRIAGLGKNRKTAVFPKLVFAIRDGLNHKKGDPNYDIKQLALECASKRMYPDILNYDQVVKVTGSFKTPMGCRSFLGVWENENGEQIHDGRNNLGVISLNLPRIALEAKGDEATFWKLLDERLVLARKALMTRIARLEGVKARVAPILYMEGACGVRLNADDDVSEIFKNGRASISLGYIGIHETINALFGGEHVYDNEQLRAKGIAIVERLRQAVDQWKEETGYGFSLYSTPSENLCDRFCRLDTAEFGVVPGVTDKGYYTNSFHLDVEKKVNPYDKIDFEAPYPPLANGGFICYGEYPNIQHNLKALEDVWDYSYQHVPYYGTNTPIDECYECGFTGEFECTSKGFTCPKCGNHDASRVSVTRRVCGYLGSPDARPFNAGKQEEVKRRVKHLGNGQIG
total protein half-life in vivo [1]: 2.17 ± 0.33 h
total protein half-life in vivo [2]: 1.045 ± 0.0046 h
total protein half-life in vivo [3]: 0.844 ± 0.15 h
total protein half-life in vivo [4]: 1.02 ± 0.11 h
total protein half-life in vivo [5]: 0.762 ± 0.051 h
total protein half-life in vivo [6]: 2.63 ± 0.5 h
total protein half-life in vivo [7]: 2 ± 0.24 h
total protein half-life in vivo [8]: 2.72 ± 0.57 h
total protein half-life in vivo [9]: 1.67 ± 0.91 h
total protein half-life in vivo [10]: 1.49 ± 0.42 h
total protein half-life in vivo [11]: 2.99 ± 0.31 h
total protein half-life in vivo [12]: 4.91 ± 0.075 h

MTPTIELICGHRSIRHFTDEPISEAQREAIINSARATSSSSFLQCSSIIRITDKALREELVTLTGGQKHVAQAAEFWVFCADFNRHLQICPDAQLGLAEQLLLGVVDTAMMAQNALIAAESLGLGGVYIGGLRNNIEAVTKLLKLPQHVLPLFGLCLGWPADNPDLKPRLPASILVHENSYQPLDKGALAQYDEQLAEYYLTRGSNNRRDTWSDHIRRTIIKESRPFILDYLHKQGWATR
total protein half-life in vivo [1]: 4.82 ± 1 h
total protein half-life in vivo [2]: 3.94 ± 0.13 h
total protein half-life in vivo [3]: 4.1 ± 0.27 h
total protein half-life in vivo [4]: 4.4 ± 0.54 h
total protein half-life in vivo [5]: 3.98 ± 0.23 h
total protein half-life in vivo [6]: 2.93 ± 0.35 h
total protein half-life in vivo [7]: 4.8 ± 0.82 h
total protein half-life in vivo [8]: 9.24 ± 0.9 h
total protein half-life in vivo [9]: 3.89 ± 0.47 h
total protein half-life in vivo [10]: 7.96 ± 0.79 h
total protein half-life in vivo [11]: 5.01 ± 0.35 h
total protein half-life in vivo [12]: 9.93 ± 2.7 h

MTQFASPVLHSLLDTDAYKLHMQQAVFHHYYDVHVAAEFRCRGDDLLGIYADAIREQVQAMQHLRLQDDEYQWLSALPFFKADYLNWLREFRFNPEQVTVSNDNGKLDIRLSGPWREVILWEVPLLAVISEMVHRYRSPQADVAQALDTLESKLVDFSALTAGLDMSRFHLMDFGTRRRFSREVQETIVKRLQQESWFVGTSNYDLARRLSLTPMGTQAHEWFQAHQQISPDLANSQRAALAAWLEEYPDQLGIALTDCITMDAFLRDFGVEFASRYQGLRHDSGDPVEWGEKAIAHYEKLGIDPQSKTLVFSDNLDLRKAVELYRHFSSRVQLSFGIGTRLTCDIPQVKPLNIVIKLVECNGKPVAKLSDSPGKTICHDKAFVRALRKAFDLPHIKKAS
total protein half-life in vivo [1]: 4.31 ± 1.6 h
total protein half-life in vivo [2]: 3.07 ± 0.44 h
total protein half-life in vivo [3]: 2.98 ± 0.068 h
total protein half-life in vivo [4]: 4.11 ± 0.88 h
total protein half-life in vivo [5]: 2.95 ± 0.13 h
total protein half-life in vivo [6]: 2.28 ± 0.31 h
total protein half-life in vivo [7]: 4.04 ± 0.27 h
total protein half-life in vivo [8]: 5.56 ± 0.35 h
total protein half-life in vivo [9]: 2.92 ± 0.065 h
total protein half-life in vivo [10]: 4.49 ± 0.41 h
total protein half-life in vivo [11]: 3.57 ± 0.071 h
total protein half-life in vivo [12]: 5.37 ± 1 h

MTQGAVKTTGKRSRAVSAKKKAILSAALDTFSQFGFHGTRLEQIAELAGVSKTNLLYYFPSKEALYIAVLRQILDIWLAPLKAFREDFAPLAAIKEYIRLKLEVSRDYPQASRLFCMEMLAGAPLLMDELTGDLKALIDEKSALIAGWVKSGKLAPIDPQHLIFMIWASTQHYADFAPQVEAVTGATLRDEVFFNQTVENVQRIIIEGIRPR [P0ACU2]
total protein half-life in vivo [1]: 6.17 ± 0.95 h
total protein half-life in vivo [2]: 5.74 ± 0.36 h
total protein half-life in vivo [4]: 5.5 ± 0.84 h
total protein half-life in vivo [5]: 4.92 ± 0.71 h
total protein half-life in vivo [6]: 2.31 ± 0.54 h
total protein half-life in vivo [7]: 5.35 h
total protein half-life in vivo [8]: 12.1 ± 1.9 h
total protein half-life in vivo [9]: 5.39 ± 0.83 h
total protein half-life in vivo [10]: 10.8 ± 1.4 h
total protein half-life in vivo [11]: 4.61 ± 0.38 h
total protein half-life in vivo [12]: 9.98 ± 0.25 h

MTQKIEQSQRQERVAAWNRRAECDLAAFQNSPKQTYQAEKARDRKLCANLEEAIRRSGLQDGMTVSFHHAFRGGDLTVNMVMDVIAKMGFKNLTLASSSLSDCHAPLVEHIRQGVVTRIYTSGLRGPLAEEISRGLLAEPVQIHSHGGRVHLVQSGELNIDVAFLGVPSCDEFGNANGYTGKACCGSLGYAIVDADNAKQVVMLTEELLPYPHNPASIEQDQVDLIVKVDRVGDAAKIGAGATRMTTNPRELLIARSAADVIVNSGYFKEGFSMQTGTGGASLAVTRFLEDKMRSRDIRADFALGGITATMVDLHEKGLIRKLLDVQSFDSHAAQSLARNPNHIEISANQYANWGSKGASVDRLDVVVLSALEIDTQFNVNVLTGSDGVLRGASGGHCDTAIASALSIIVAPLVRGRIPTLVDNVLTCITPGSSVDILVTDHGIAVNPARPELAERLQEAGIKVVSIEWLRERARLLTGEPQPIEFTDRVVAVVRYRDGSVIDVVHQVKE
total protein half-life in vivo [8]: > 16 h

MTQPMPGKPAEDAENELDIRGLFRTLWAGKLWIIGMGLAFALIALAYTFFARQEWSSTAITDRPTVNMLGGYYSQQQFLRNLDVRSNMASADQPSVMDEAYKEFVMQLASWDTRREFWLQTDYYKQRMVGNSKADAALLDEMINNIQFIPGDFTRAVNDSVKLIAETAPDANNLLRQYVAFASQRAASHLNDELKGAWAARTIQMKAQVKRQEEVAKAIYDRRMNSIEQALKIAEQHNISRSATDVPAEELPDSEMFLLGRPMLQARLENLQAVGPAFDLDYDQNRAMLNTLNVGPTLDPRFQTYRYLRTPEEPVKRDSPRRAFLMIMWGIVGGLIGAGVALTRRCSK [P0AG00]
total protein half-life in vivo [1]: 6.85 ± 0.38 h
total protein half-life in vivo [2]: 6.17 ± 0.56 h
total protein half-life in vivo [3]: 6.71 ± 1.2 h
total protein half-life in vivo [4]: 6.55 ± 0.092 h
total protein half-life in vivo [5]: 6.22 ± 0.16 h
total protein half-life in vivo [6]: 3.48 ± 0.46 h
total protein half-life in vivo [7]: 6.38 ± 0.37 h
total protein half-life in vivo [9]: 6.6 ± 1.2 h
total protein half-life in vivo [10]: 12.9 ± 1.9 h
total protein half-life in vivo [11]: 6.31 ± 0.24 h
total protein half-life in vivo [12]: 13.3 ± 0.56 h

MTQPVLDIQQLHLSFPGFNGDVHALNNVSLQINRGEIVGLVGESGSGKSVTAMLIMRLLPTGSYCVHRGQISLLGEDVLNAREKQLRQWRGARVAMIFQEPMTALNPTRRIGLQMMDVIRHHQPISRREARAKAIDLLEEMQIPDAVEVMSRYPFELSGGMRQRVMIALAFSCEPQLIIADEPTTALDVTVQLQVLRLLKHKARASGTAVLFISHDMAVVSQLCDSVYVMYAGSVIESGVTADVIHHPRHPYTIGLLQCAPEHGVPRQLLPAIPGTVPNLTHLPDGCAFRDRCYAAGAQCENVPALTACGDNNQRCACWYPQQEVISV
total protein half-life in vivo [1]: 6.47 ± 1.1 h
total protein half-life in vivo [2]: 3.49 ± 0.17 h
total protein half-life in vivo [3]: 4.03 ± 0.098 h
total protein half-life in vivo [4]: 2.24 h
total protein half-life in vivo [5]: 4.53 ± 0.11 h
total protein half-life in vivo [6]: 2.28 ± 0.3 h
total protein half-life in vivo [7]: 3.41 ± 0.54 h
total protein half-life in vivo [9]: 4.02 ± 0.26 h
total protein half-life in vivo [10]: 7.62 ± 0.58 h

MTQQITLIKDKILSDNYFTLHNITYDLTRKDGEVIRHKREVYDRGNGATILLYNTKKKTVVLIRQFRVATWVNGNESGQLIESCAGLLDNDEPEVCIRKEAIEETGYEVGEVRKLFELYMSPGGVTELIHFFIAEYSDNQRANAGGGVEDEDIEVLELPFSQALEMIKTGEIRDGKTVLLLNYLQTSHLMD
total protein half-life in vivo [1]: 4.25 h
total protein half-life in vivo [2]: 3.023 ± 0.017 h
total protein half-life in vivo [3]: 2.96 ± 0.066 h
total protein half-life in vivo [4]: 4.03 ± 0.41 h
total protein half-life in vivo [5]: 3.07 ± 1 h
total protein half-life in vivo [6]: 2.824 ± 0.026 h
total protein half-life in vivo [7]: 4.44 h
total protein half-life in vivo [8]: 6.27 ± 2.4 h
total protein half-life in vivo [9]: 3.15 ± 0.25 h
total protein half-life in vivo [10]: 4.71 h
total protein half-life in vivo [11]: 2.31 h
total protein half-life in vivo [12]: 4.47 ± 0.2 h

MTQYSSLLRGLAAGSAFLFLFAPTAFAAEQTVEAPSVDARAWILMDYASGKVLAEGNADEKLDPASLTKIMTSYVVGQALKADKIKLTDMVTVGKDAWATGNPALRGSSVMFLKPGDQVSVADLNKGVIIQSGNDACIALADYVAGSQESFIGLMNGYAKKLGLTNTTFQTVHGLDAPGQFSTARDMALLGKALIHDVPEEYAIHKEKEFTFNKIRQPNRNRLLWSSNLNVDGMKTGTTAGAGYNLVASATQGDMRLISVVLGAKTDRIRFNESEKLLTWGFRFFETVTPIKPDATFVTQRVWFGDKSEVNLGAGEAGSVTIPRGQLKNLKASYTLTEPQLTAPLKKGQVVGTIDFQLNGKSIEQRPLIVMENVEEGGFFGRVWDFVMMKFHQWFGSWFS
total protein half-life in vivo [1]: 6.35 ± 0.48 h
total protein half-life in vivo [2]: 6.56 ± 0.37 h
total protein half-life in vivo [3]: 6.22 ± 0.69 h
total protein half-life in vivo [4]: 6.18 ± 0.099 h
total protein half-life in vivo [5]: 6.46 ± 0.26 h
total protein half-life in vivo [6]: 3.19 ± 0.077 h
total protein half-life in vivo [7]: 6.19 ± 1.3 h
total protein half-life in vivo [8]: 12.4 ± 0.45 h
total protein half-life in vivo [9]: 5.989 ± 0.057 h
total protein half-life in vivo [10]: 14.9 ± 1.2 h
total protein half-life in vivo [11]: 5.962 ± 0.051 h
total protein half-life in vivo [12]: 13.2 ± 0.29 h

MTRPIQASLDLQALKQNLSIVRQAATHARVWSVVKANAYGHGIERIWSAIGATDGFALLNLEEAITLRERGWKGPILMLEGFFHAQDLEIYDQHRLTTCVHSNWQLKALQNARLKAPLDIYLKVNSGMNRLGFQPDRVLTVWQQLRAMANVGEMTLMSHFAEAEHPDGISGAMARIEQAAEGLECRRSLSNSAATLWHPEAHFDWVRPGIILYGASPSGQWRDIANTGLRPVMTLSSEIIGVQTLKAGERVGYGGRYTARDEQRIGIVAAGYADGYPRHAPTGTPVLVDGVRTMTVGTVSMDMLAVDLTPCPQAGIGTPVELWGKEIKIDDVAAAAGTVGYELMCALALRVPVVTV
total protein half-life in vivo [1]: 4.49 ± 0.56 h
total protein half-life in vivo [2]: 3.6 ± 0.35 h
total protein half-life in vivo [3]: 3.14 ± 0.1 h
total protein half-life in vivo [4]: 3.89 ± 0.29 h
total protein half-life in vivo [5]: 3.37 ± 0.47 h
total protein half-life in vivo [6]: 3.16 ± 0.19 h
total protein half-life in vivo [7]: 6.2 ± 0.25 h
total protein half-life in vivo [8]: 9.9 ± 0.72 h
total protein half-life in vivo [9]: 3.6 ± 0.21 h
total protein half-life in vivo [10]: 5.1 ± 0.33 h
total protein half-life in vivo [11]: 6.81 ± 1.4 h
total protein half-life in vivo [12]: 11.9 ± 1.2 h
